Laboratory results: US20170007595A1, “NSD3 INHIBITORS FOR TREATMENT OF CANCERS” (THE BRIGHAM AND WOMEN'S HOSPITAL, INC., priority 2014, published 2017)

What was measured:
797TRex cells [1] = assay: differentiation of 797TRex cells on induced expression of construct (involucrin immunoblot, H&E, IHC); format: cell-based, human; conditions: induced expression for 120 h
Source text: BRD4 ET domain containing fragment (BRD4 444-722) was cloned into pcDNA5 FRT/TO-FLAG (Invitrogen) with an N-terminal SV40 NLS sequence to generate pcDNA5 FRT/TO-Flag-NLS-BRD4-ET (p6894). MSCV-CMV-Flag-HA-NSD3 (p6351) has been described previously (8). To make tetracycline-inducible N- and C-terminal BioTAP-tagged constructs, the inventors transferred the gateway destination cassette from pHAGE-TRE (gift of Steven Elledge) to the pcDNA5 frt/to mammalian expression vector with N-terminal BioTAP tandem tag to make pcDNA5 frt/to-DEST-NBioTAP. NSD3-NUT was constructed by fusion PCR into pDONR223, then transferred into the pcDNA5 frt/to-DEST-NBioTAP vector by gateway cloning. Full length NSD3, NSD3Tr encoding amino acids 1-569 of NSD3, full length NUT, BRD4-NUT (derived from pcDNA5 frt/to FLAG-BRD4-NUT (17)) were PCR-cloned into pDONR223, then transferred by gateway cloning into the pHAGE-P CMVt N-HA GAW expression vector derived from the PHAGE lentiviral vector (52).
NMC cell lines, TC-797 (15) 10-15 (6), 8645(17), 293T, U205, and C33A cells were maintained as monolayer cultures in Dulbecco Modified Eagle medium (DMEM) (Invitrogen) supplemented with 10% (v/v) Fetal Bovine Serum (FBS, SH3008803, Hyclone) and 1% pen-strep (GIBCO/Invitrogen). […]

BRD4 = molecular target: T1, BRD4 (Homo sapiens, UniProt O60885); assay: anti-HA co-immunoprecipitation in C33A-6TR cells; format: binding; conditions: HA-tagged construct, C33A cervical carcinoma cells
T1 construct: endogenous in cells; host or cells: C33A-6TR (tet-repressor-positive C33A cervical carcinoma cells)
Method: For co-immunoprecipitation experiments of HA-tagged proteins, C33A-6TR cells stably expressing HA-tagged constructs under a Tet-inducible promoter were used. Protein extracts were prepared 24 h after transfection or induction with Doxycycline (1 μg/ml). Cells were lysed in lysis buffer (50 mM Tris-HCl [pH 7.5], 150 mM NaCl, 0.5% Nonidet P-40) with freshly added protease inhibitors (Roche Complete, EDTA free protease inhibitor cocktail, Roche, Indianapolis, Ind.). Extracts were adjusted for protein concentration and 10% of extracts were used as Input Immunoprecipitations were performed using 15 μl of HA-resin (Sigma A2095). Extracts were incubated overnight at 4° C., and precipitated proteins were detected by Western blot analysis.

BRD4-NUT foci = molecular target: T2, BRD4-NUT foci (Homo sapiens, UniProt O60885+Q86Y26); assay: immunofluorescence co-localization in 797TRex cells; format: cell-based; conditions: HA-tagged, induced 24 h
T2 construct: composed of the N-terminal of BRD4 (amino acids 1-720 out of 1372); endogenous in cells; host or cells: 797TRex cells (tet-inducible derivative of the BRD4-NUT-positive NMC line TC-797)
Method: Immunofluorescence on TC-797 cells was performed as described (55) and nuclei were counterstained with ProLong® Gold antifade reagent with 4′,6-diamidino-2-phenylindole (DAPI) (Life Technologies). Primary antibodies used were anti-NUT (1:1000, rabbit monoclonal clone C52, Cell Signaling Technology), and anti-HA (1:500, mouse monoclonal, Sigma-Aldrich). Secondary antibodies included goat anti-rabbit Alexa Fluor 594 and goat anti-mouse Alexa Fluor 488 (1:1000, Life Technologies, Grand Island, N.Y.). Photos were taken on a Nikon Eclipse E600 fluorescent microscope (Melville, N.Y.) using a Spot RTSlider camera (Diagnostic Instruments, Inc., Sterling Heights, Mich.), and Spot Advanced software (Diagnostic Instruments, Inc.).

293T cells = assay: luminescent cell viability assay (CellTiter-Glo), 293T; format: cell-based; conditions: induced ET domain expression for 120 h
Method: (§1) Cells were plated at a density of 3000 per well in a 96-well plate, and CellTiter-Glo (Promega, Madison, Wis.) was used to determine cell viability as a measure of ATP content according to the manufacturer's instructions.

797TRex cells [2] = assay: luminescent cell viability assay (CellTiter-Glo), 797TRex; format: cell-based, human; conditions: induced ET domain expression for 120 h
Method: as §1

U2OS cells = assay: luminescent cell viability assay (CellTiter-Glo), U2OS; format: cell-based; conditions: induced ET domain expression for 120 h
Method: as §1

co-immunoprecipitation of BRD4 (BRD4) | co-localization with BRD4-NUT foci (BRD4-NUT foci) | Molecule | differentiation (morphology, involucrin) (797TRex cells [1]) | growth (cell viability, CellTiter-Glo) (293T cells) | proliferation rate (cell viability, CellTiter-Glo) (797TRex cells [2]) | growth (cell viability, CellTiter-Glo) (U2OS cells)
co-immunoprecipitated BRD4 | co-localized with BRD4-NUT foci | NSD3Tr: portion of NSD3 present in NSD3-NUT, amino acids 1-569 of NSD3, HA- or BioTAP-tagged, inducibly expressed (protein, left off: large carriers; small tags and cut ends, portion of NSD3 present in NSD3-NUT, amino acids 1-569 of NSD3, HA- or BioTAP-tagged, inducibly expressed) MDFSFSFMQGIMGNTIQQPPQLIDSANIRQEDAFDNNSDIAEDGGQTPYEATLQQGFQYPATTEDLPPLTNGYPSSISVYETQTKYQSYNQYPNGSANGFGAVRNFSPTDYYHSEIPNTRPHEILEKPSPPQPPPPPSVPQTVIPKKTGSPEIKLKITKTIQNGRELFESSLCGDLLNEVQASEHTKSKHESRKEKRKKSNKHDSSRSEERKSHKIPKLEPEEQNRPNERVDTVSEKPREEPVLKEEAPVQPILSSVPTTEVSTGVKFQVGDLVWSKVGTYPWWPCMVSSDPQLEVHTKINTRGAREYHVQFFSNQPERAWVHEKRVREYKGHKQYEELLAEATKQASNHSEKQKIRKPRPQRERAQWDIGIAHAEKALKMTREERIEQYTFIYIDKQPEEALSQAKKSVASKTEVKKTRRPRSVLNTQPEQTNAGEVASSLSSTEIRRHSQRRHTSAEEEEPPPVKIAWKTAAARKSLPASITMHKGSLDLQKCNMSPVVKIEQVFALQNATGDGKFIDQFVYSTKGIGNKTEISVRGQDRLIISTPNQRNEKPTQSVSSPEATSGST | found to induce differentiation |  |  | 
 |  | ET domain: BRD4 ET domain containing fragment (BRD4 444-722) with N-terminal SV40 NLS, FLAG-tagged, tet-inducibly expressed (protein, left off: small tags and cut ends, BRD4 ET domain containing fragment (BRD4 444-722) with N-terminal SV40 NLS, FLAG-tagged, tet-inducibly expressed) KLQDVFEMRFAKMPDEPEEPVVAVSSPAVPPPTKVVAPPSSSDSSSDSSSDSDSSTDDSEEERAQRLAELQEQLKAVHEQLAALSQPQQNKPKKKEKDKKEKKKEKHKRKEEVEENKKSKAKEPPPKKTKKNNSSNSNVSRKEPAPMKSKPPPTYESEEEDKCKPMSYEEKRQLSLDINLPGEKLGRVVHIIQSREPSLKNSNPDEIEIDFETLKPSTLRELERYVTSCLRKKRKPQAEICVDVIAGSSKMKGFSSSESESSSESSSSDSEDSETEMAP | inducing differentiation morphologically and immunophenotypically | unaffected | negatively affected the proliferation rate | unaffected
